Experimental findings from patent US20260116991A1 (HAINAN SIMCERE ZAIMING PHARMACEUTICAL, published 2026) are described below.

For assay [1], the target named is T1, GPC3 endogenously expressed on HepG2 cells (UniProt P51654 25-554).
T1 construct: whole, on cells
Put plainly: FACS on HepG2 cells.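 Note: flow cytometric binding of chimeric antibodies to cells, read as mean fluorescence intensity, EC50 obtained by curve fitting of the MFI data.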
Procedure: (§1) The desired cells were expanded to a logarithmic growth phase in a T-75 cell culture flask, the medium was removed by pipetting, and the cells were washed twice with a PBS buffer, and digested with trypsin. Then a complete medium was added to stop the digestion, and the cells were blown into a single cell suspension. After counting, the cells were centrifuged, and the cell pellet was resuspended with an FACS buffer (PBS+2% fetal bovine serum) to 2×10⁶ cells/mL. The cell resuspension solution was added to a 96-well FACS reaction plate at 50 μl/well, and a chimeric antibody sample to be tested was added at 50 μl/well for incubation at 4° C. for 1 h. […] After the plate was centrifuged and washed 3 times with a PBS buffer, 100 μl of the resulting solution was assayed and analyzed by FACS (FACS Canto™, purchased from BD Biosciences). Data analysis was performed by software (FlowJo) to obtain the mean fluorescence intensity (MFI) of the cells. Then, analysis was performed by software (GraphPad Prism8), data were fitted, and EC₅₀ values were calculated.

The target of assay [2] is T2, human GPC3-His protein (human, UniProt P51654 25-559).
T2 construct: Bought protein; also called human GPC3 protein; not shown: His tag
Put plainly: ELISA, coated human GPC3, antibody 0.001 nM. (ELISA stands for enzyme-linked immunosorbent assay.)

The target in assay [3] is T2, human GPC3-His protein. Put plainly: ELISA, coated human GPC3, antibody 10 nM.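 Note: plate coated with antigen at 1 µg/mL, antibodies bound 2 h at 37 °C, detected via HRP-conjugated secondary antibody and TMB substrate, absorbance read after acid stop.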
Assay [4] has as its target T2, human GPC3-His protein. The assay is described as follows: ELISA, coated human GPC3, antibody 0.0001 nM.
Assay [5] has as its target T2, human GPC3-His protein. Put plainly: ELISA, coated human GPC3, antibody 1 nM.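 Note: antigen coated at 1 µg/mL on 96-well plates, antibody bound for 2 h at 37 °C, detected with HRP-labeled secondary antibody and TMB, absorbance read at 450 nm.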
Procedure: (§2) The specific method is described as follows: The antigen protein was diluted with PBS to a final concentration of 1 μg/mL, and the diluent was added to a 96-well ELISA plate at 50 μL/well. The plate was sealed with a plastic film and incubated at 4° C. overnight, washed twice with PBS the next day, and a blocking solution [PBS+2% (w/w) BSA] was added for blocking at room temperature for 2 h. […] After incubation at 37° C. for 2 h, the plate was washed 3 times with PBS. A horseradish peroxidase (HRP)-labeled secondary antibody (purchased from Merck, Cat. No. AP113P) was added for incubation at 37° C. for 1 h, and the plate was washed 5 times with PBS. A TMB substrate was added at 50 μL/well for incubation at room temperature for 10 min, then a stop solution (1.0M HCl) was added at 50 μL/well. An ELISA plate reader (Multimode Plate Reader, EnSight, purchased from Perkin Elmer) was used to read OD_{450 nm} values, with results as shown in Table 4 to Table 6, FIG. 1A, FIG. 1B, and FIG. 1C.
The target in assay [6] is T3, human GPC3 on CHO-K1-human GPC3 cells (clone CHOK1-hGPC3.2B5) (human, UniProt P51654 25-554).
T3 construct: whole, on cells; Stably transfected CHO-K1 clone 2B5
The assay is described as follows: FACS on CHOK1-hGPC3.2B5 cells.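 Note: flow cytometry binding of chimeric antibodies to the cells, read out as mean fluorescence intensity, with the half-maximal concentration derived by curve fitting.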
Procedure: as §1

Assay [7] concerns the target T2, human GPC3-His protein. Put plainly: ELISA, coated human GPC3, antibody 0.1 nM.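 Note: antigen coated on 96-well plates at 1 µg/mL, antibody bound 2 h at 37 °C, detected with HRP-labeled secondary antibody and TMB substrate, acid-stopped.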
Procedure: as §2
Assay [8] deals with T2, human GPC3-His protein. The assay is described as follows: ELISA, coated human GPC3, antibody 0.01 nM.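 Note: Plate-bound antigen coated at 1 µg/mL, antibody incubated 2 h at 37 °C, binding detected by HRP-conjugated secondary antibody with TMB substrate, read as absorbance at 450 nm.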
The target of assay [9] is T2, human GPC3-His protein. Put plainly: ELISA, coated human GPC3, antibody 100 nM.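 Note: antibodies bound to antigen-coated 96-well plates (1 µg/mL), 2 h at 37 °C, detected with HRP-labelled secondary antibody and TMB substrate, absorbance read at 450 nm.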
Procedure: as §2

B1: F1.120.16 human-murine chimeric antibody (antibody, human IgG1, kappa, V domains shown)
VH: EFQLQQSGPELVKPGASVKISCKASGYSFTDYNMNWVKQSNGKSLEWIGLIHPKFSVTSYNRKFKGKATLTVDQSSSTAYMQLNSLTSEDSAVYYCARWAGDYFDYWGQGTTLTVSS
VL: DIVLTQSPATLSVTPGDSVSLSCRASQSISNNLHWYQQKSHESPRLLIKYASQSISGIPSRFSGSGSGTDFTLTINSVETEDFGMYFCQQSNSWPQTFGGGTKLEIKR
With B1, the results for the EC50 in assay [1] and in assay [6] were 380 pM and 520 pM, respectively. Also, the figures for the “Max MFI” value in assay [1] and in [6] were 2080 MFI and 9730 MFI, respectively. For the same molecule, the OD450 nm worked out at 0.14 OD450 with human GPC3-His protein [2]; 1.63 OD450 in the assay with human GPC3-His protein [3]; 0.11 OD450 with human GPC3-His protein [4]; 1.23 OD450 with human GPC3-His protein [5]; 0.56 OD450 in the assay with human GPC3-His protein [7]; 0.22 OD450 with human GPC3-His protein [8]. For the same molecule, in the assay with human GPC3-His protein [9], the OD450 nm is 1.62 OD450.

B2: F1.118.4 human-murine chimeric antibody (antibody, human IgG1, kappa, V domains shown)
VH: QVQLQQSGAELAKPGASVKLSCKASGYSFTSYWIHWVKQRPGQGLEWIGYINPSSGYTKYNQKFKDKATLTADKSSSTAYMQLSSLTYEDSAVYYCARFGSSSFYFDYWGQGTTLTVSS
VL: DIVLTQSPASLAVSLGQRATISCRASQSVSSSSYSYMHWYQQKPGQPPKLLIKYASNLDSGVPARFSGSGSGTDFTLNIHPVEEEDTATYYCQHSWEIPAFGGGTKLEIKR
As to B2, the EC50 came to 330 pM in assay [1] and 530 pM in assay [6]. Besides, the “Max MFI” value in assay [1] was 2810 MFI; in assay [6], 9640 MFI. Also, the OD450 nm came out at 0.12 OD450 in the assay with human GPC3-His protein [2]; 1.75 OD450 with human GPC3-His protein [3]; 0.1 OD450 in the assay with human GPC3-His protein [4]; 1.64 OD450 with human GPC3-His protein [5]; 0.74 OD450 in the assay with human GPC3-His protein [7]; 0.19 OD450 in the assay with human GPC3-His protein [8]. Moreover, the OD450 nm in the assay with human GPC3-His protein [9] was found to be 1.53 OD450.

B3: F1.136.7 human-murine chimeric antibody (antibody, human IgG1, kappa, V domains shown)
VH: EVQLQQSGPVMVKPGPSVKISCQTSGFTFTDYYIHWVKQSHGKSLEWIGLVFPYDGGTNYNQKFKDKATLTLDTSSSTAYMELNSLTSEDSAVYYCARAGGFSYALNYWGQGTSVTVSS
VL: DIQMTQSPSSLSASLGGKVTITCKASQDINNYIAWYQHKPGKGPRLLIHFTSTLQPGIPSRFSGSGSGRDYSFSISNLEPEDIATYYCLQYDNLLLTFGAGTKLELKR
Consider B3, for which the EC50 was 2000 pM in [1] and 1410 pM in assay [6]. Moreover, the “Max MFI” value in [1] worked out at 2240 MFI; in assay [6] it was 9540 MFI. Moreover, the OD450 nm came to 0.1 OD450 in the assay with human GPC3-His protein [2]; 1.4 OD450 with human GPC3-His protein [3]; 0.11 OD450 with human GPC3-His protein [4]; 0.63 OD450 in the assay with human GPC3-His protein [5]; 0.43 OD450 with human GPC3-His protein [7]; 0.14 OD450 with human GPC3-His protein [8]. In addition, the OD450 nm with human GPC3-His protein [9] amounted to 1.19 OD450.

B4: F1.153.1 human-murine chimeric antibody (antibody, human IgG1, kappa, V domains shown)
VH: QIQLVQSGPELKKPGETVKISCKASGYTFTTAGMQWVQKMPGKGFKWIGWINTHSGEPQYAEDFKGRFAFSLETSASTAYLQISNLKNEDTATYFCARSFYYHGSSFFYFDYWGQGTTLTVSS
VL: DIVMTQSQKFMSTTVGDRVSITCKASQNVGTAVAWYQQKPGQSPKLLIYSASNRYTGVPDRFTGSGSGADFTLTISNMQSEDLADYFCQQYSRYPLTFGAGTKLELKR
As to B4, the figures for the EC50 in assay [1] and in [6] were 1300 pM and 910 pM, respectively. For the same molecule, the “Max MFI” value in assay [1] amounted to 4100 MFI; in assay [6], 3080 MFI. Moreover, the OD450 nm with human GPC3-His protein [2] was 0.1 OD450; in the assay with human GPC3-His protein [3] it was 1.85 OD450; in the assay with human GPC3-His protein [4], 0.11 OD450; with human GPC3-His protein [5], 1.56 OD450; with human GPC3-His protein [7] it was 0.64 OD450; in the assay with human GPC3-His protein [8] it was 0.15 OD450. In the assay with human GPC3-His protein [9], this molecule returned an OD450 nm of 2.06 OD450.

B5: F1.3.9 human-murine chimeric antibody (antibody, human IgG1, kappa, V domains shown)
VH: QVQLQQPGTELVKPGASVKLSCKASGYTFTSYWIHWVKQRPGQGLEWIGNINPPNAGTNYNEKFKSKATLTVDKSSSTAYMQLSSLTSEDSAVYYCARGRWLLHDYWGQGTTLTVSS
VL: DIQMTQSPASLSISVGETVTITCRASENIYSNLAWYQQKQGKSPQLLVYGTKNLAEGVPSRFSGSGSGTQYSLKINSLQSEDFGNYYCQHFWGTPYTFGGGTKLEILR
Take B5: the EC50 in assay [1] was 800 pM; in assay [6], 2780 pM. The “Max MFI” value in [1] amounted to 3810 MFI; in [6], 3210 MFI. For the same molecule, the OD450 nm with human GPC3-His protein [2] is 0.11 OD450; in the assay with human GPC3-His protein [3], 1.95 OD450; in the assay with human GPC3-His protein [4] it was 0.1 OD450; with human GPC3-His protein [5], 1.66 OD450; in the assay with human GPC3-His protein [7] it was 0.92 OD450; in the assay with human GPC3-His protein [8] it was 0.21 OD450. The same molecule registered an OD450 nm with human GPC3-His protein [9] of 2.07 OD450.

As a reminder, the EC50 is the concentration that produces a half-maximal response. Lower therefore signals greater potency.
